From patent publication CN115368446A (HEFEI TIANGANG IMMUNOLOGY PHARMACEUTICAL CO LTD, dated 2022)

Molecular target: T1, CD79b蛋白 (on CHO-K1-CD79b细胞 / A375-CD79b细胞) (Homo sapiens (Human), UniProt P40259 29-229)
T1 sequence: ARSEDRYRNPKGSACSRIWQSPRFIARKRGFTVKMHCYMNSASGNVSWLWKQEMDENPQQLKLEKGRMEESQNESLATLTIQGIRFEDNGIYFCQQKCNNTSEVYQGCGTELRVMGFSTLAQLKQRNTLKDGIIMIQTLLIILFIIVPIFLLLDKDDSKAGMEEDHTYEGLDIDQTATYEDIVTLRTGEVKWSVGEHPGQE
Assay: flow cytometry on CHO-K1-CD79b cells, Alexa-647 anti-human Fc detection

B1: 抗体CD3×CD79b (bispecific antibody, human IgG1, kappa, L234A L235A)
scFv: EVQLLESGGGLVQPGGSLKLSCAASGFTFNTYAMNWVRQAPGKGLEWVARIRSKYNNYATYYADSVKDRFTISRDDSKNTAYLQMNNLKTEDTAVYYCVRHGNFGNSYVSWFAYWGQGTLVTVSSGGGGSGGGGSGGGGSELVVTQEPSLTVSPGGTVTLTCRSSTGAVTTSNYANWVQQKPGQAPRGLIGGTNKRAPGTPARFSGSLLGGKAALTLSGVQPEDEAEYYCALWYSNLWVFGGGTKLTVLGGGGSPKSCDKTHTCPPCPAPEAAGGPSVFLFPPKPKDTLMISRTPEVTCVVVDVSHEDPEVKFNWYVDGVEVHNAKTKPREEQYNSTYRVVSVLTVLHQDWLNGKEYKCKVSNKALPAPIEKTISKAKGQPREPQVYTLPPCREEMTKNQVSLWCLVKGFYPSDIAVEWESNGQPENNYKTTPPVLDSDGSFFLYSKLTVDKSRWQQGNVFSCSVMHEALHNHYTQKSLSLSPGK
heavy: EVQLVESGGGLVQPGGSLRLSCAASGYTFSSYWIEWVRQAPGKGLEWIGEILPGGGDTNYNEIFKGRATFSADTSKNTAYLQMNSLRAEDTAVYYCTRRVPIRLDYWGQGTLVTVSSASTKGPSVFPLAPSSKSTSGGTAALGCLVKDYFPEPVTVSWNSGALTSGVHTFPAVLQSSGLYSLSSVVTVPSSSLGTQTYICNVNHKPSNTKVDKKVEPKSCDKTHTCPPCPAPEAAGGPSVFLFPPKPKDTLMISRTPEVTCVVVDVSHEDPEVKFNWYVDGVEVHNAKTKPREEQYNSTYRVVSVLTVLHQDWLNGKEYKCKVSNKALPAPIEKTISKAKGQPREPQVCTLPPSREEMTKNQVSLSCAVKGFYPSDIAVEWESNGQPENNYKTTPPVLDSDGSFFLVSKLTVDKSRWQQGNVFSCSVMHEALHNHYTQKSLSLSPGK
light: DIQLTQSPSSLSASVGDRVTITCKASQSVDYEGDSFLNWYQQKPGKAPKLLIYAASNLESGVPSRFSGSGSGTDFTLTISSLQPEDFATYYCQQSNEDPLTFGQGTKVEIKRTVAAPSVFIFPPSDEQLKSGTASVVCLLNNFYPREAKVQWKVDNALQSGNSQESVTEQDSKDSTYSLSSTLTLSKADYEKHKVYACEVTHQGLSSPVTKSFNRGEC
notes: Three-chain knob-into-hole bispecific made in ExpiCHO cells and purified on Protein A; also called CD3×CD79b抗体; CD3×CD79b双特异抗体
- binding result: binds
